Measured values from FireProtDB (doi:10.1021/bi00135a019).

Conditions: Aspergillus oryzae (strain ATCC 42149 / RIB 40), DSC, reversible: yes, whole UniProt chain shown; for Tm / heat capacity change of unfolding / unfolding enthalpy (calorimetric) / unfolding enthalpy (van 't Hoff): Thermal; for denaturant m value / denaturant midpoint (higher = more stable) / unfolding free energy: Urea, MOPS 30 mM
[1] = pH 7, PIPES 30 mM, MgCl2 0.01 M
[2] = pH 7, PIPES 30 mM, MgCl2 0.02 M
[3] = pH 7, PIPES 30 mM, MgCl2 0.03 M
[4] = pH 7, PIPES 30 mM, MgCl2 0.06 M
[5] = pH 7, PIPES 30 mM, MgCl2 0.10 M
[6] = pH 7, PIPES 30 mM, MgCl2 0.20 M
[7] = pH 7, PIPES 30 mM, MgCl2 0.40 M
[8] = pH 7, PIPES 30 mM, MgCl2 0.60 M
[9] = pH 7, PIPES 30 mM, MgCl2 0.80 M

B1: Guanyl-specific ribonuclease T1 wild type, P00651 (protein)
chain: MMYSKLLTLTTLLLPTALALPSLVERACDYTCGSNCYSSSDVSTAQAAGYQLHEDGETVGSNSYPHKYNNYEGFDFSVSSPYYEWPILSSGDVYSGGSPGADRVVFNENNQLAGVITHTGASGNNFVECT
For B1, the Tm (pH 2.2, glycine 30 mM) was 45.4 °C, the “heat capacity change of unfolding” value (pH 2.2, glycine 30 mM) was 1.53 kcal/mol/K and the “unfolding enthalpy (calorimetric)” value (pH 2.2, glycine 30 mM) was 89.6 kcal/mol. The “unfolding enthalpy (van 't Hoff)” value (pH 2.2, glycine 30 mM) was 114 kcal/mol, the Tm (pH 2.8, glycine 30 mM) was 49 °C and the “heat capacity change of unfolding” value (pH 2.8, glycine 30 mM) was 1.64 kcal/mol/K. The “unfolding enthalpy (calorimetric)” value (pH 2.8, glycine 30 mM) was 95.3 kcal/mol, the “unfolding enthalpy (van 't Hoff)” value (pH 2.8, glycine 30 mM) was 109 kcal/mol and the Tm (pH 4, acetate 30 mM) was 56.7 °C. For the same protein, the “heat capacity change of unfolding” value (pH 4, acetate 30 mM) was 2.47 kcal/mol/K, the “unfolding enthalpy (calorimetric)” value (pH 4, acetate 30 mM) was 102 kcal/mol and the “unfolding enthalpy (van 't Hoff)” value (pH 4, acetate 30 mM) was 114 kcal/mol. The Tm (pH 5, acetate 30 mM) was 56.5 °C, the “heat capacity change of unfolding” value (pH 5, acetate 30 mM) was 1.74 kcal/mol/K and the “unfolding enthalpy (calorimetric)” value (pH 5, acetate 30 mM) was 106 kcal/mol. The “unfolding enthalpy (van 't Hoff)” value (pH 5, acetate 30 mM) was 117 kcal/mol, the denaturant m value (pH 7, 14.9 °C) was 1.26 kcal/mol/M and the “denaturant midpoint (higher = more stable)” value (shortened to “denaturant midpoint”) (pH 7, 14.9 °C) was 5.65 M. The unfolding free energy (pH 7, 14.9 °C) was 6.84 kcal/mol, the denaturant m value (pH 7, 21.1 °C) was 1.1 kcal/mol/M and the “denaturant midpoint” value (pH 7, 21.1 °C) was 4.98 M. For the same protein, the unfolding free energy (pH 7, 21.1 °C) was 6.03 kcal/mol, the denaturant m value (pH 7, 23.05 °C) was 1.2 kcal/mol/M and the “denaturant midpoint” value (pH 7, 23.05 °C) was 4.86 M. For the same protein, the unfolding free energy (pH 7, 23.05 °C) was 5.89 kcal/mol, the denaturant m value (pH 7, 25 °C) was 1.2 kcal/mol/M and the “denaturant midpoint” value (pH 7, 25 °C) was 4.58 M. The unfolding free energy (pH 7, 25 °C) was 5.55 kcal/mol, the denaturant m value (pH 7, 27 °C) was 1.2 kcal/mol/M and the “denaturant midpoint” value (pH 7, 27 °C) was 4.14 M. For the same protein, the unfolding free energy (pH 7, 27 °C) was 5.01 kcal/mol, the denaturant m value (pH 7, 29 °C) was 1.27 kcal/mol/M and the “denaturant midpoint” value (pH 7, 29 °C) was 3.93 M. For the same protein, the unfolding free energy (pH 7, 29 °C) was 4.76 kcal/mol, the denaturant m value (pH 7, 34.75 °C) was 1.22 kcal/mol/M and the “denaturant midpoint” value (pH 7, 34.75 °C) was 2.92 M. For the same protein, the unfolding free energy (pH 7, 34.75 °C) was 3.54 kcal/mol, the denaturant m value (pH 7, 40.1 °C) was 1.28 kcal/mol/M and the “denaturant midpoint” value (pH 7, 40.1 °C) was 2.13 M. For the same protein, the unfolding free energy (pH 7, 40.1 °C) was 2.58 kcal/mol, the Tm (pH 7, PIPES 30 mM, MgCl2 0 M) was 48.9 °C and the “heat capacity change of unfolding” value (pH 7, PIPES 30 mM, MgCl2 0 M) was 1.35 kcal/mol/K. The “unfolding enthalpy (calorimetric)” value (pH 7, PIPES 30 mM, MgCl2 0 M) was 95.5 kcal/mol, the “unfolding enthalpy (van 't Hoff)” value (pH 7, PIPES 30 mM, MgCl2 0 M) was 118 kcal/mol and the Tm [1] was 52.4 °C. The “heat capacity change of unfolding” value [1] was 1.22 kcal/mol/K, the “unfolding enthalpy (calorimetric)” value [1] was 98.2 kcal/mol and the “unfolding enthalpy (van 't Hoff)” value [1] was 117 kcal/mol. For the same protein, the Tm [2] was 53.5 °C, the “heat capacity change of unfolding” value [2] was 0.86 kcal/mol/K and the “unfolding enthalpy (calorimetric)” value [2] was 98.9 kcal/mol. The “unfolding enthalpy (van 't Hoff)” value [2] was 117 kcal/mol, the Tm [3] was 54 °C and the “heat capacity change of unfolding” value [3] was 0.94 kcal/mol/K. The “unfolding enthalpy (calorimetric)” value [3] was 99.1 kcal/mol, the “unfolding enthalpy (van 't Hoff)” value [3] was 119 kcal/mol and the Tm [4] was 55.4 °C. The “heat capacity change of unfolding” value [4] was 1.02 kcal/mol/K, the “unfolding enthalpy (calorimetric)” value [4] was 104 kcal/mol and the “unfolding enthalpy (van 't Hoff)” value [4] was 120 kcal/mol. For the same protein, the Tm [5] was 56.6 °C, the “heat capacity change of unfolding” value [5] was 1.11 kcal/mol/K and the “unfolding enthalpy (calorimetric)” value [5] was 104 kcal/mol. For the same protein, the “unfolding enthalpy (van 't Hoff)” value [5] was 121 kcal/mol, the Tm [6] was 58.1 °C and the “heat capacity change of unfolding” value [6] was 0.71 kcal/mol/K. The “unfolding enthalpy (calorimetric)” value [6] was 104 kcal/mol, the “unfolding enthalpy (van 't Hoff)” value [6] was 122 kcal/mol and the Tm [7] was 60.1 °C. For the same protein, the “heat capacity change of unfolding” value [7] was 1.22 kcal/mol/K, the “unfolding enthalpy (calorimetric)” value [7] was 108 kcal/mol and the “unfolding enthalpy (van 't Hoff)” value [7] was 122 kcal/mol. The Tm [8] was 61.9 °C, the “heat capacity change of unfolding” value [8] was 1.07 kcal/mol/K and the “unfolding enthalpy (calorimetric)” value [8] was 109 kcal/mol. For the same protein, the “unfolding enthalpy (van 't Hoff)” value [8] was 125 kcal/mol, the Tm [9] was 63 °C and the “heat capacity change of unfolding” value [9] was 1.14 kcal/mol/K. The “unfolding enthalpy (calorimetric)” value [9] was 111 kcal/mol, the “unfolding enthalpy (van 't Hoff)” value [9] was 121 kcal/mol and the Tm (pH 7, PIPES 30 mM, NaCl 0 M) was 48.9 °C. For the same protein, the “heat capacity change of unfolding” value (pH 7, PIPES 30 mM, NaCl 0 M) was 1.35 kcal/mol/K, the “unfolding enthalpy (calorimetric)” value (pH 7, PIPES 30 mM, NaCl 0 M) was 95.5 kcal/mol and the “unfolding enthalpy (van 't Hoff)” value (pH 7, PIPES 30 mM, NaCl 0 M) was 118 kcal/mol. For the same protein, the Tm (pH 7, PIPES 30 mM, NaCl 0.05 M) was 51 °C, the “heat capacity change of unfolding” value (pH 7, PIPES 30 mM, NaCl 0.05 M) was 0.93 kcal/mol/K and the “unfolding enthalpy (calorimetric)” value (pH 7, PIPES 30 mM, NaCl 0.05 M) was 99.5 kcal/mol. The “unfolding enthalpy (van 't Hoff)” value (pH 7, PIPES 30 mM, NaCl 0.05 M) was 120 kcal/mol, the Tm (pH 7, PIPES 30 mM, NaCl 0.10 M) was 52.1 °C and the “heat capacity change of unfolding” value (pH 7, PIPES 30 mM, NaCl 0.10 M) was 1.6 kcal/mol/K. The “unfolding enthalpy (calorimetric)” value (pH 7, PIPES 30 mM, NaCl 0.10 M) was 101 kcal/mol, the “unfolding enthalpy (van 't Hoff)” value (pH 7, PIPES 30 mM, NaCl 0.10 M) was 119 kcal/mol and the Tm (pH 7, PIPES 30 mM, NaCl 0.20 M) was 53.9 °C. For the same protein, the “heat capacity change of unfolding” value (pH 7, PIPES 30 mM, NaCl 0.20 M) was 1.31 kcal/mol/K, the “unfolding enthalpy (calorimetric)” value (pH 7, PIPES 30 mM, NaCl 0.20 M) was 105 kcal/mol and the “unfolding enthalpy (van 't Hoff)” value (pH 7, PIPES 30 mM, NaCl 0.20 M) was 121 kcal/mol. For the same protein, the Tm (pH 7, PIPES 30 mM, NaCl 0.40 M) was 56.5 °C, the “heat capacity change of unfolding” value (pH 7, PIPES 30 mM, NaCl 0.40 M) was 1.4 kcal/mol/K and the “unfolding enthalpy (calorimetric)” value (pH 7, PIPES 30 mM, NaCl 0.40 M) was 107 kcal/mol. For the same protein, the “unfolding enthalpy (van 't Hoff)” value (pH 7, PIPES 30 mM, NaCl 0.40 M) was 121 kcal/mol, the Tm (pH 7, PIPES 30 mM, NaCl 0.60 M) was 58.5 °C and the “heat capacity change of unfolding” value (pH 7, PIPES 30 mM, NaCl 0.60 M) was 1.31 kcal/mol/K. For the same protein, the “unfolding enthalpy (calorimetric)” value (pH 7, PIPES 30 mM, NaCl 0.60 M) was 111 kcal/mol, the “unfolding enthalpy (van 't Hoff)” value (pH 7, PIPES 30 mM, NaCl 0.60 M) was 122 kcal/mol and the Tm (pH 7, PIPES 30 mM, NaCl 0.80 M) was 60.2 °C. The “heat capacity change of unfolding” value (pH 7, PIPES 30 mM, NaCl 0.80 M) was 2.11 kcal/mol/K, the “unfolding enthalpy (calorimetric)” value (pH 7, PIPES 30 mM, NaCl 0.80 M) was 111 kcal/mol and the “unfolding enthalpy (van 't Hoff)” value (pH 7, PIPES 30 mM, NaCl 0.80 M) was 124 kcal/mol. For the same protein, the Tm (pH 7, PIPES 30 mM, NaCl 1.20 M) was 63.2 °C, the “heat capacity change of unfolding” value (pH 7, PIPES 30 mM, NaCl 1.20 M) was 1.42 kcal/mol/K and the “unfolding enthalpy (calorimetric)” value (pH 7, PIPES 30 mM, NaCl 1.20 M) was 112 kcal/mol. The “unfolding enthalpy (van 't Hoff)” value (pH 7, PIPES 30 mM, NaCl 1.20 M) was 126 kcal/mol, the Tm (pH 7, PIPES 30 mM, NaCl 1.60 M) was 65.6 °C and the “heat capacity change of unfolding” value (pH 7, PIPES 30 mM, NaCl 1.60 M) was 1.37 kcal/mol/K. For the same protein, the “unfolding enthalpy (calorimetric)” value (pH 7, PIPES 30 mM, NaCl 1.60 M) was 115 kcal/mol, the “unfolding enthalpy (van 't Hoff)” value (pH 7, PIPES 30 mM, NaCl 1.60 M) was 125 kcal/mol and the Tm (pH 7, PIPES 30 mM) was 48.9 °C. For the same protein, the “heat capacity change of unfolding” value (pH 7, PIPES 30 mM) was 1.35 kcal/mol/K, the “unfolding enthalpy (calorimetric)” value (pH 7, PIPES 30 mM) was 95.5 kcal/mol and the “unfolding enthalpy (van 't Hoff)” value (pH 7, PIPES 30 mM) was 119 kcal/mol. For the same protein, the Tm (pH 7.5, PIPES 30 mM) was 46.7 °C, the “heat capacity change of unfolding” value (pH 7.5, PIPES 30 mM) was 1.71 kcal/mol/K and the “unfolding enthalpy (calorimetric)” value (pH 7.5, PIPES 30 mM) was 93.2 kcal/mol. The “unfolding enthalpy (van 't Hoff)” value (pH 7.5, PIPES 30 mM) was 121 kcal/mol, the Tm (pH 8, PIPES 30 mM) was 45.8 °C and the “heat capacity change of unfolding” value (pH 8, PIPES 30 mM) was 0.88 kcal/mol/K. For the same protein, the “unfolding enthalpy (calorimetric)” value (pH 8, PIPES 30 mM) was 91.6 kcal/mol, the “unfolding enthalpy (van 't Hoff)” value (pH 8, PIPES 30 mM) was 116 kcal/mol and the Tm (pH 9, glycine 30 mM) was 40.7 °C. The “heat capacity change of unfolding” value (pH 9, glycine 30 mM) was 0.42 kcal/mol/K, the “unfolding enthalpy (calorimetric)” value (pH 9, glycine 30 mM) was 76.5 kcal/mol and the “unfolding enthalpy (van 't Hoff)” value (pH 9, glycine 30 mM) was 114 kcal/mol. For the same protein, the Tm (pH 10, glycine 30 mM) was 39.4 °C, the “unfolding enthalpy (calorimetric)” value (pH 10, glycine 30 mM) was 76.9 kcal/mol and the “unfolding enthalpy (van 't Hoff)” value (pH 10, glycine 30 mM) was 104 kcal/mol.
